B1: DVD3204 (bispecific antibody, IgG1)
VH: EVQLVESGGGLVQPGGSLRLSCAASGFTFSNYGVTWVRQAPGKGLEWVSMIWADGSTHYASSVKGRFTISRDNSKNTLYLQMNSLRAEDTAVYYCAREWQHGPVAYWGQGTLVTVSSASTKGPEVQLVESGGGLVQPGGSLRLSCAASGFSFSKYWLGWVRQAPGKGLEWVSDIYPGYDYTHYNEKFKDRFTISADTSKNTAYLQMNSLRAEDTAVYYCARSDGSSTYWGQGTLVTVSS
VL: DIQMTQSPSSLSASVGDRVTITCRASQLVSSAVAWYQQKPGKAPKLLIYWASARHTGVPSRFSGSGSGTDFTLTISSLQPEDFATYYCQQHYKTPFTFGQGTKLEIKRTVAAPDIQMTQSPSSLSASVGDRVTITCTSSQNIVHSNGNTYLEWYQQKPGKAPKLLIYKVSNRFSGVPSRFSGSGSGTDFTLTISSLQPEDFATYYCFQVSHVPYTFGQGTKVEIKR
B2: DVD3206 (bispecific antibody, IgG1)
VH: B1 VH
VL: DIQMTQSPSSLSASVGDRVTITCRASQLVSSAVAWYQQKPGKAPKLLIYWASARHTGVPSRFSGSGSGTDFTLTISSLQPEDFATYYCQQHYKTPFTFGQGTKLEIKRTVAAPSVFIFPPDIQMTQSPSSLSASVGDRVTITCTSSQNIVHSNGNTYLEWYQQKPGKAPKLLIYKVSNRFSGVPSRFSGSGSGTDFTLTISSLQPEDFATYYCFQVSHVPYTFGQGTKVEIKR
B3: DVD3207 (bispecific antibody, IgG1)
VH: EVQLVESGGGLVQPGGSLRLSCAASGFTFSNYGVTWVRQAPGKGLEWVSMIWADGSTHYASSVKGRFTISRDNSKNTLYLQMNSLRAEDTAVYYCAREWQHGPVAYWGQGTLVTVSSASTKGPSVFPLAPEVQLVESGGGLVQPGGSLRLSCAASGFSFSKYWLGWVRQAPGKGLEWVSDIYPGYDYTHYNEKFKDRFTISADTSKNTAYLQMNSLRAEDTAVYYCARSDGSSTYWGQGTLVTVSS
VL: B1 VL
B4: DVD3022 (bispecific antibody, IgG1)
VH: EVQLVQSGAEVKKPGASVKVSCKASGYTFNNYGIIWVRQAPGQGLEWMGWINTYTGKPTYAQKFQGRVTMTTDTSTSTAYMELSSLRSEDTAVYYCARKLFNTVAVTDNAMDYWGQGTTVTVSSASTKGPSVFPLAPEVQLVQSGAEVKKPGASVKVSCKASGYTFTKYWLGWVRQAPGQGLEWMGDIYPGYDYTHYNEKFKDRVTLTTDTSTSTAYMELRSLRSDDTAVYYCARSDGSSTYWGQGTLVTVSS
VL: DIQMTQSPSSLSASVGDRVTITCRASQDIENYLNWYQQKPGKAPKLLIYYTSRLQSGVPSRFSGSGSGTDFTLTISSLQPEDFATYFCQQGNTQPPTFGQGTKLEIKRTVAAPDVLMTQTPLSLPVTPGEPASISCTSSQNIVHSNGNTYLEWYLQKPGQSPQLLIYKVSNRFSGVPDRFSGSGSGTDFTLKISRVEAEDVGVYYCFQVSHVPYTFGGGTKVEIKR
B5: DVD3021 (bispecific antibody, IgG1)
VH: EVQLVQSGAEVKKPGASVKVSCKASGYTFNNYGIIWVRQAPGQGLEWMGWINTYTGKPTYAQKFQGRVTMTTDTSTSTAYMELSSLRSEDTAVYYCARKLFNTVAVTDNAMDYWGQGTTVTVSSASTKGPEVQLVQSGAEVKKPGASVKVSCKASGYTFTKYWLGWVRQAPGQGLEWMGDIYPGYDYTHYNEKFKDRVTLTTDTSTSTAYMELRSLRSDDTAVYYCARSDGSSTYWGQGTLVTVSS
VL: DIQMTQSPSSLSASVGDRVTITCRASQDIENYLNWYQQKPGKAPKLLIYYTSRLQSGVPSRFSGSGSGTDFTLTISSLQPEDFATYFCQQGNTQPPTFGQGTKLEIKRTVAAPSVFIFPPDVLMTQTPLSLPVTPGEPASISCTSSQNIVHSNGNTYLEWYLQKPGQSPQLLIYKVSNRFSGVPDRFSGSGSGTDFTLKISRVEAEDVGVYYCFQVSHVPYTFGGGTKVEIKR
B6: DVD3023 (bispecific antibody, IgG1)
VH: EVQLVQSGAEVKKPGASVKVSCKASGYTFTKYWLGWVRQAPGQGLEWMGDIYPGYDYTHYNEKFKDRVTLTTDTSTSTAYMELRSLRSDDTAVYYCARSDGSSTYWGQGTLVTVSSGGGGSGGGGSEVQLVQSGAEVKKPGASVKVSCKASGYTFNNYGIIWVRQAPGQGLEWMGWINTYTGKPTYAQKFQGRVTMTTDTSTSTAYMELSSLRSEDTAVYYCARKLFNTVAVTDNAMDYWGQGTTVTVSS
VL: DVLMTQTPLSLPVTPGEPASISCTSSQNIVHSNGNTYLEWYLQKPGQSPQLLIYKVSNRFSGVPDRFSGSGSGTDFTLKISRVEAEDVGVYYCFQVSHVPYTFGGGTKVEIKRGGSGGGGSGDIQMTQSPSSLSASVGDRVTITCRASQDIENYLNWYQQKPGKAPKLLIYYTSRLQSGVPSRFSGSGSGTDFTLTISSLQPEDFATYFCQQGNTQPPTFGQGTKLEIKR
B7: DVD3203 (bispecific antibody, IgG1)
VH: EVQLVESGGGLVQPGGSLRLSCAASGFTFSNYGVTWVRQAPGKGLEWVSMIWADGSTHYASSVKGRFTISRDNSKNTLYLQMNSLRAEDTAVYYCAREWQHGPVAYWGQGTLVTVSSGGGGSGGGGSEVQLVESGGGLVQPGGSLRLSCAASGFSFSKYWLGWVRQAPGKGLEWVSDIYPGYDYTHYNEKFKDRFTISADTSKNTAYLQMNSLRAEDTAVYYCARSDGSSTYWGQGTLVTVSS
VL: DIQMTQSPSSLSASVGDRVTITCRASQLVSSAVAWYQQKPGKAPKLLIYWASARHTGVPSRFSGSGSGTDFTLTISSLQPEDFATYYCQQHYKTPFTFGQGTKLEIKRGGSGGGGSGDIQMTQSPSSLSASVGDRVTITCTSSQNIVHSNGNTYLEWYQQKPGKAPKLLIYKVSNRFSGVPSRFSGSGSGTDFTLTISSLQPEDFATYYCFQVSHVPYTFGQGTKVEIKR
B8: DVD3208 (bispecific antibody, IgG1)
VH: EVQLVESGGGLVQPGGSLRLSCAASGFSFSKYWLGWVRQAPGKGLEWVSDIYPGYDYTHYNEKFKDRFTISADTSKNTAYLQMNSLRAEDTAVYYCARSDGSSTYWGQGTLVTVSSGGGGSGGGGSEVQLVESGGGLVQPGGSLRLSCAASGFTFSNYGVTWVRQAPGKGLEWVSMIWADGSTHYASSVKGRFTISRDNSKNTLYLQMNSLRAEDTAVYYCAREWQHGPVAYWGQGTLVTVSS
VL: DIQMTQSPSSLSASVGDRVTITCTSSQNIVHSNGNTYLEWYQQKPGKAPKLLIYKVSNRFSGVPSRFSGSGSGTDFTLTISSLQPEDFATYYCFQVSHVPYTFGQGTKVEIKRGGSGGGGSGDIQMTQSPSSLSASVGDRVTITCRASQLVSSAVAWYQQKPGKAPKLLIYWASARHTGVPSRFSGSGSGTDFTLTISSLQPEDFATYYCQQHYKTPFTFGQGTKLEIKR
B9: DVD3209 (bispecific antibody, IgG1)
VH: EVQLVESGGGLVQPGGSLRLSCAASGFSFSKYWLGWVRQAPGKGLEWVSDIYPGYDYTHYNEKFKDRFTISADTSKNTAYLQMNSLRAEDTAVYYCARSDGSSTYWGQGTLVTVSSASTKGPEVQLVESGGGLVQPGGSLRLSCAASGFTFSNYGVTWVRQAPGKGLEWVSMIWADGSTHYASSVKGRFTISRDNSKNTLYLQMNSLRAEDTAVYYCAREWQHGPVAYWGQGTLVTVSS
VL: DIQMTQSPSSLSASVGDRVTITCTSSQNIVHSNGNTYLEWYQQKPGKAPKLLIYKVSNRFSGVPSRFSGSGSGTDFTLTISSLQPEDFATYYCFQVSHVPYTFGQGTKVEIKRTVAAPDIQMTQSPSSLSASVGDRVTITCRASQLVSSAVAWYQQKPGKAPKLLIYWASARHTGVPSRFSGSGSGTDFTLTISSLQPEDFATYYCQQHYKTPFTFGQGTKLEIKR
B10: DVD3211 (bispecific antibody, IgG1)
VH: B9 VH
VL: DIQMTQSPSSLSASVGDRVTITCTSSQNIVHSNGNTYLEWYQQKPGKAPKLLIYKVSNRFSGVPSRFSGSGSGTDFTLTISSLQPEDFATYYCFQVSHVPYTFGQGTKVEIKRTVAAPSVFIFPPDIQMTQSPSSLSASVGDRVTITCRASQLVSSAVAWYQQKPGKAPKLLIYWASARHTGVPSRFSGSGSGTDFTLTISSLQPEDFATYYCQQHYKTPFTFGQGTKLEIKR
B11: DVD3024 (bispecific antibody, IgG1)
VH: EVQLVQSGAEVKKPGASVKVSCKASGYTFTKYWLGWVRQAPGQGLEWMGDIYPGYDYTHYNEKFKDRVTLTTDTSTSTAYMELRSLRSDDTAVYYCARSDGSSTYWGQGTLVTVSSASTKGPEVQLVQSGAEVKKPGASVKVSCKASGYTFNNYGIIWVRQAPGQGLEWMGWINTYTGKPTYAQKFQGRVTMTTDTSTSTAYMELSSLRSEDTAVYYCARKLFNTVAVTDNAMDYWGQGTTVTVSS
VL: DVLMTQTPLSLPVTPGEPASISCTSSQNIVHSNGNTYLEWYLQKPGQSPQLLIYKVSNRFSGVPDRFSGSGSGTDFTLKISRVEAEDVGVYYCFQVSHVPYTFGGGTKVEIKRTVAAPDIQMTQSPSSLSASVGDRVTITCRASQDIENYLNWYQQKPGKAPKLLIYYTSRLQSGVPSRFSGSGSGTDFTLTISSLQPEDFATYFCQQGNTQPPTFGQGTKLEIKR
B12: DVD3026 (bispecific antibody, IgG1)
VH: B11 VH
VL: DVLMTQTPLSLPVTPGEPASISCTSSQNIVHSNGNTYLEWYLQKPGQSPQLLIYKVSNRFSGVPDRFSGSGSGTDFTLKISRVEAEDVGVYYCFQVSHVPYTFGGGTKVEIKRTVAAPSVFIFPPDIQMTQSPSSLSASVGDRVTITCRASQDIENYLNWYQQKPGKAPKLLIYYTSRLQSGVPSRFSGSGSGTDFTLTISSLQPEDFATYFCQQGNTQPPTFGQGTKLEIKR
B13: DVD3027 (bispecific antibody, IgG1)
VH: EVQLVQSGAEVKKPGASVKVSCKASGYTFTKYWLGWVRQAPGQGLEWMGDIYPGYDYTHYNEKFKDRVTLTTDTSTSTAYMELRSLRSDDTAVYYCARSDGSSTYWGQGTLVTVSSASTKGPSVFPLAPEVQLVQSGAEVKKPGASVKVSCKASGYTFNNYGIIWVRQAPGQGLEWMGWINTYTGKPTYAQKFQGRVTMTTDTSTSTAYMELSSLRSEDTAVYYCARKLFNTVAVTDNAMDYWGQGTTVTVSS
VL: B11 VL

Target: Recombinant Human TNF-α/TNFSF1A (human, UniProt P01375 77-233)
Test: cell-based or functional assay

Recombinant Human TNF-α/TNFSF1A, sequence (P01375 77-233 limits assumed): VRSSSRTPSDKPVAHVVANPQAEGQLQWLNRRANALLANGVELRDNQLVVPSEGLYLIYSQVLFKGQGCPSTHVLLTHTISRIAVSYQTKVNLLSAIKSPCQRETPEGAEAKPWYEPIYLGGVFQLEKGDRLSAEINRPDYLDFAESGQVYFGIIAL

Binder | N-Terminal VD huTNFα Neutralization Assay IC50 [nM] | C-Terminal VD huTNFα Neutralization Assay IC50 [nM]
B1 | 0.001 | –
B2 | 0.001 | –
B3 | 0.005 | –
B4 | 0.016 | –
B5 | 0.007 | –
B6 | – | 0.203
B7 | 0.071 | –
B8 | – | 0.172
B9 | – | 0.536
B10 | – | 0.014
B11 | – | 0.934
B12 | – | 0.038
B13 | – | 0.076
